Read-outs that look alike come from different tables or passages of the source.
What was measured:
Assay in all cases: SPR
[1] = target: T1, C-terminal domain of Bundibugyo Ebola virus Nucleoprotein (NP^Ct)
[2] = target: T2, C-terminal domain of Tai Forest Ebola virus Nucleoprotein (NP^Ct)
[3] = target: T3, C-terminal domain of Zaire Ebola virus Nucleoprotein (NP^Ct) (UniProt P18272 641-739)
[4] = target: C-terminal domain of Sudan Ebola virus Nucleoprotein (NP^Ct) (UniProt Q9QP77 641-738)
[5] = target: T1, C-terminal domain of Bundibugyo Ebola …; remark: listed apart in the source
[6] = target: T2, C-terminal domain of Tai Forest Ebola …; remark: listed apart in the source
[7] = target: C-terminal domain of Reston Ebola virus Nucleoprotein (NP^Ct) (UniProt Q8JPY1 641-739)
[8] = target: T3, C-terminal domain of Zaire Ebola virus …; remark: listed apart in the source

Row | Binder | Kd [1] | Kd [2] | Kd [3] | Kd [4] | Kd [5] | Kd [6] | Kd [7] | Kd [8]
1 | Fab 6 (Fab, V domains shown) VH: EVQLVESGGGLVQPGGSLRLSCAASGFNVYYYYIHWVRQAPGKGLEWVASISPYYGYTSSYADSVKGRFTISADTSKNTAYLQMNSLRAEDTAVYYCARWSYDQSMSYKSGMDYWGQGTLVTVSS VL: DIQMTQSPSSLSASVGDRVTITCRASQSVSSAVAWYQQKPGKAPKLLIYSASSLYSGVPSRFSGSRSGTDFTLTISSLQPEDFATYYCQQYSYSLVTFGQGTKVEIKR | 3.95 nM | 4.68 nM | 0.687 nM |  |  |  |  | 
2 | Fab 20 (Fab, V domains shown) VH: EVQLVESGGGLVQPGGSLRLSCAASGFNISYSSIHWVRQAPGKGLEWVASIYSYSGYTSYADSVKGRFTISADTSKNTAYLQMNSLRAEDTAVYYCARSYWYHVGSWHYTGMDYWGQGTLVTVSS VL: DIQMTQSPSSLSASVGDRVTITCRASQSVSSAVAWYQQKPGKAPKLLIYSASSLYSGVPSRFSGSRSGTDFTLTISSLQPEDFATYYCQQSSSSLITFGQGTKVEIKR |  |  |  | 20.3 nM | 16.6 nM | 3.05 nM | 11.7 nM | 4.14 nM
